This note sets out measurements from article PMC4499870.

The target of experiment [1] is CytERM-EBFP2 (Aequorea victoria).
For experiment [2], the target named is CytERM-moxBFP (Aequorea victoria).

For CytERM-EBFP2, the % cells with OSER structures (CytERM assay, n=138 cells) in experiment [1] came to 63.7%.
In the experiment with CytERM-mTagBFP, CytERM-mTagBFP showed a % cells with OSER structures (CytERM assay, n=69 cells) of 43.5%.
For the substance CytERM-moxBFP, in experiment [2], the % cells with OSER structures (CytERM assay, n=109 cells) came out at 0.9%.
